Data as given in patent US20240325555A1 (LANOVA MEDICINES, published 2024).

T1: human LIV-1 (human, UniProt Q13433 29-755)
T1 construct: whole, on cells; also called H-LIV1
T1 sequence (looked up): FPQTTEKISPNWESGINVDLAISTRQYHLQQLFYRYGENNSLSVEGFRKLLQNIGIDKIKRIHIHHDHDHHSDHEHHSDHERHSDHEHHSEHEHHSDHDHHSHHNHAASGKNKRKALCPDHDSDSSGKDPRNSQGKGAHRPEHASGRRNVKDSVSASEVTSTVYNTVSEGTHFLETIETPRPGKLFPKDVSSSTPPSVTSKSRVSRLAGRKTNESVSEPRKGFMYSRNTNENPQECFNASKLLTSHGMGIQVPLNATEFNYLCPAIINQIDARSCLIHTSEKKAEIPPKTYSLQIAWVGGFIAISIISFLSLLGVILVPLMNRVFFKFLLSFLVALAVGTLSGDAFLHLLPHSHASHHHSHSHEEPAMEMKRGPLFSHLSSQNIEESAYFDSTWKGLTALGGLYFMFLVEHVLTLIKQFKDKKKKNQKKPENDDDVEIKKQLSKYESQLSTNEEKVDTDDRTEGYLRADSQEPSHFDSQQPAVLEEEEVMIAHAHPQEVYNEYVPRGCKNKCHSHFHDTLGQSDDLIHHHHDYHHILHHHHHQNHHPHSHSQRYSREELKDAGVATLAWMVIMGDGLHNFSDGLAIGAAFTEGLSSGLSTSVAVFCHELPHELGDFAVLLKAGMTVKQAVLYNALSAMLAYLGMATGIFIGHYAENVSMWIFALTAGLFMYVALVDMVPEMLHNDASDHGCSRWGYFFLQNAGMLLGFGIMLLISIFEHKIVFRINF

T2: mouse LIV-1 (mouse, UniProt Q8C145 21-765)
T2 construct: whole, on cells
T2 sequence (looked up): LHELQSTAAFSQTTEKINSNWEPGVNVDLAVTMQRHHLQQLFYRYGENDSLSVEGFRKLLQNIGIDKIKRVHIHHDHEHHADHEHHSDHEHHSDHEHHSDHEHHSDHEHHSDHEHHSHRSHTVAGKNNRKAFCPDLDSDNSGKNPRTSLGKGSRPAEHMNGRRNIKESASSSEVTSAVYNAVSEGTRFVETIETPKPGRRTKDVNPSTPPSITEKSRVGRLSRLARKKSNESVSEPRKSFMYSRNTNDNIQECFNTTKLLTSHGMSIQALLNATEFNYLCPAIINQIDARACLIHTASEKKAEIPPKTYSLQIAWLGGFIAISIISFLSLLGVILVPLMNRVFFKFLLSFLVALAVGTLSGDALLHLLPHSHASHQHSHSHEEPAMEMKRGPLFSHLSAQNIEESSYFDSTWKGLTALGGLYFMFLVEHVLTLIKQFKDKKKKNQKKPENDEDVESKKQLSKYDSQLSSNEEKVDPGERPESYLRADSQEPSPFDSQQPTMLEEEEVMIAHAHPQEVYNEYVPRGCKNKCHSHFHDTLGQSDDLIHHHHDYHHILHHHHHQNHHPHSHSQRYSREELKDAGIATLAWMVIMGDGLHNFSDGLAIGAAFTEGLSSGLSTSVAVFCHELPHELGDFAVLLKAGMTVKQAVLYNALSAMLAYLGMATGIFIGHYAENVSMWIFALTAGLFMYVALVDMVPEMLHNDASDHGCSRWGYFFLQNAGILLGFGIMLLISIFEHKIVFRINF

T3: rat LIV-1 (rat, UniProt Q4V887 21-741)
T3 construct: whole, on cells
T3 sequence (looked up): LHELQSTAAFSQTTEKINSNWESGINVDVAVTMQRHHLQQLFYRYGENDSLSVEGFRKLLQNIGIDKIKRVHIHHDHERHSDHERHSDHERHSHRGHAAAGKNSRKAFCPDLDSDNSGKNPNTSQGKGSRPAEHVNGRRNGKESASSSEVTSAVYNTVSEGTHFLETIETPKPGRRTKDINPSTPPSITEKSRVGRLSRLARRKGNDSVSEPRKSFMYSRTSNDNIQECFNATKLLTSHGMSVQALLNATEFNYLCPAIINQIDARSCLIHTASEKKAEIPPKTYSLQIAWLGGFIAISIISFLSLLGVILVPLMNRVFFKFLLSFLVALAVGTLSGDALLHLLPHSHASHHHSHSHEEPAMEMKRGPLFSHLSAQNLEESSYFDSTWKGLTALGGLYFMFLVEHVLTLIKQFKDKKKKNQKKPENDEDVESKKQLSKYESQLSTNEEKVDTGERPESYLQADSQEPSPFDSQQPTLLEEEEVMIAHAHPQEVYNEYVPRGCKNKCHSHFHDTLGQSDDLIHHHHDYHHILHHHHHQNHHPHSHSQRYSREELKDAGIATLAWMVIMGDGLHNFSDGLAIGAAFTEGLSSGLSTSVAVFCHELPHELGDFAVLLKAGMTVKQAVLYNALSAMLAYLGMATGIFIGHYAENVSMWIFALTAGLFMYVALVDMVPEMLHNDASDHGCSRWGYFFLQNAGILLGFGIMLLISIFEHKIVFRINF


What was measured:
human LIV-1 [1] = biological target: T1, human LIV-1; assay: FACS, BT20/H_LIV-1 Low cells
Protocol: (§1) Cell based binding of ADC and naked of ADC on human LIV-1 expressing cells were assessed using flow cytometry. Briefly, HEK293/H_LIV-1, both low- and high-expressing H-LIV1-positive cell lines were incubated with ADC and naked of ADC (from 100 nM, 6 folds dilution, 8 points), respectively. After incubation at 4° C. for 60 minutes, the cells were washed with FACS buffer twice, then stained with fluorescent conjugated secondary antibody at 4° C. for 30 minutes. After that the cells were washed twice and analyzed by flow cytometry.

human LIV-1 [2] = biological target: T1, human LIV-1; assay: cell-based or functional assay
human LIV-1 [3] = biological target: T1, human LIV-1; assay: FACS, BT20/H_LIV-1 High cells
Protocol: as §1

cynomolgus LIV-1 [4] = biological target: T4, cynomolgus LIV-1 (cynomolgus, UniProt A0A2K5WH46 30-741); assay: FACS, cyno LIV-1 cells
human LIV-1 [5] = biological target: T1, human LIV-1; assay: FACS, human LIV-1 cells
Protocol: (§2) In this example, cell based binding of humanized antibodies (hu Abs) on human LIV-1-expressing cells were assessed using flow cytometry.
as §1, with “hu-Abs” for “ADC and naked of ADC”, “the HEK293/H_LIV-1 cells” for “HEK293/H_LIV-1, both low- and high-expressing H-LIV1-positive cell lines”, “points).” for “points), respectively.”

human LIV-1 [6] = biological target: T1, human LIV-1; assay: FACS, HEK293/H_LIV-1 cells
Protocol: as §1

rhesus LIV-1 = rhesus LIV-1 (rhesus, UniProt H9FSJ2 30-735); assay: FACS, HEK293/Rhe_LIV-1 cells
Protocol: (§3) Humanized antibodies 5D6B10.z7, 124H4D11.p2.z4 and 290F10G10.p1.z2 were selected for further testing. In this example, FACS cross binding of these selected antibodies to LIV-1 of different species were assessed using flow cytometry.
(§4) Cell based binding of optimal leads to different species LIV-1 expressing cells were assessed using flow cytometry. Briefly, the cells were incubated with optimal leads (from 100 nM, 6 folds dilution, 8 points). After incubation at 4° C. for 60 minutes, the cells were washed with 2% FBS/PBS buffer twice, then stained with fluorescent conjugated secondary antibody at 4° C. for 30 minutes. After that the cells were washed twice and resuspended in 80 μL of 2% FBS/PBS buffer. Fluorescent signal of binding was detected using Agilent. The EC50 was calculated using the GraphPad Software (LaJolla, CA).

cynomolgus LIV-1 [7] = biological target: T4, cynomolgus LIV-1; assay: FACS, HEK293/Cyno_LIV-1 cells
Protocol: as §4

mouse LIV-1 = biological target: T2, mouse LIV-1; assay: FACS, HEK293/Mouse_LIV-1 cells
Protocol: as §3, §4

rat LIV-1 = biological target: T3, rat LIV-1; assay: FACS, HEK293/Rat_LIV-1 cells
Protocol: as §3, §4

cynomolgus LIV-1 [8] = biological target: T4, cynomolgus LIV-1; assay: FACS, HEK293/Cyno_LIV-1 cells; remark: listed apart in the source
human LIV-1 [9] = biological target: T1, human LIV-1; assay: FACS, HEK293/H_LIV-1 cells; remark: listed apart in the source
Protocol: as §2
as §1, with “hu-Abs” for “ADC and naked of ADC”, “the HEK293/H_LIV-1 cells” for “HEK293/H_LIV-1, both low- and high-expressing H-LIV1-positive cell lines”, “points).” for “points), respectively.”

T4 sequence (A0A2K5WH46 entry or part of it): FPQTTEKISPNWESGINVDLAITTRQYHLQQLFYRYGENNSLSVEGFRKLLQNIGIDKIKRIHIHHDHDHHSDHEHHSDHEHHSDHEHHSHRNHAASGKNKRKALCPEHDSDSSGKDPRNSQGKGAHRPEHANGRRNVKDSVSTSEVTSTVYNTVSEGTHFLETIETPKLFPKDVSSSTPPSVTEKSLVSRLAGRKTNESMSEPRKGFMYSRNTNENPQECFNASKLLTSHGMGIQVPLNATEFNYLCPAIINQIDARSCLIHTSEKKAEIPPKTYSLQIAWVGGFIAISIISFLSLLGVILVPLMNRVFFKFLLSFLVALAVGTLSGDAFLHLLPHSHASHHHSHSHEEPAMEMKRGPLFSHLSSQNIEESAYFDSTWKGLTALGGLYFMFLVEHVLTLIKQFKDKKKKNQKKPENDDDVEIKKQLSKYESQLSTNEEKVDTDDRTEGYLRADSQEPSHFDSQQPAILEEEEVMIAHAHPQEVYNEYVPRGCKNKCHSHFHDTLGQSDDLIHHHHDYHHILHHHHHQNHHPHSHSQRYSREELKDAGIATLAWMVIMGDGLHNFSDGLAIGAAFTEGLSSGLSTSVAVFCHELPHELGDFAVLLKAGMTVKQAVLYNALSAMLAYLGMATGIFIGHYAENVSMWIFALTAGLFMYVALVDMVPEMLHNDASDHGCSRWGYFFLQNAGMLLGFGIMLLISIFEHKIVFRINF
Sequence of rhesus LIV-1 (H9FSJ2 entry or part of it): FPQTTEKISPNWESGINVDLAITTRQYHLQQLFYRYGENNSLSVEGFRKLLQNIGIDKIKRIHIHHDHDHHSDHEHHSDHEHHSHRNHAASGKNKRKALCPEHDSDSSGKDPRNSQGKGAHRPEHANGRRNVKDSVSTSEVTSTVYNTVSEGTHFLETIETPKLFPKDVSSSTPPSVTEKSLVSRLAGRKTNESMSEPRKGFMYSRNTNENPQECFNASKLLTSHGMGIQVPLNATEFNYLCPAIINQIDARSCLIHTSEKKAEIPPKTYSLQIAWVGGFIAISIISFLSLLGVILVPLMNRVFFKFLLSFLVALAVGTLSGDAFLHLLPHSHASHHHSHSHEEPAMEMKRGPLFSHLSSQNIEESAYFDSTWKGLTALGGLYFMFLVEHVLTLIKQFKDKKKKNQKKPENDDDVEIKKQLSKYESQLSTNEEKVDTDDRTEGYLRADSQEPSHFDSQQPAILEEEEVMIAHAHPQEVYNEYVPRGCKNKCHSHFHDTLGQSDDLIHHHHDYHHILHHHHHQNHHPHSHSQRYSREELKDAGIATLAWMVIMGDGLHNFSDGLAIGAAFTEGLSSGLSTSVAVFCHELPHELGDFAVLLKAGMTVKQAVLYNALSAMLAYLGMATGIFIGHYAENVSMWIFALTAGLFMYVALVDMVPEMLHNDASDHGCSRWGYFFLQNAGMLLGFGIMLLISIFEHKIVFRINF

EC50 (human LIV-1 [1]) [nM] | Top (MFI) (human LIV-1 [1]) | Internalization EC50 (human LIV-1 [2]) [nM] | Internalization Top (MFI) (human LIV-1 [2]) | EC50 (human LIV-1 [3]) [nM] | Top (MFI) (human LIV-1 [3]) | EC50 (human LIV-1 [6]) [nM] | Top (MFI) (human LIV-1 [6]) | Binder | further results
1.43 | 3400 | 5 | 112000 | 1.06 | 18800 | 0.7 | 17800 | 290F10G10.p1.Z2 (antibody, V domains shown, also called 290F10G10.z2; LM-001) VH: EVQLVQSGAEVKKPGASVKVSCKASGYTFTSYWIHWVRQAPGQGLEWMGTIYPGDADTRSTQKFKDRVTMTADTSTSTVYMELSSLRSEDTAVYYCARSLIHDDYDKYYFDYWGQGTTVTVSS VL: DIQMTQSPSSLSASVGDRVTITCKARQDINKYIAWYQQKPGKAPKLLIHYTSILQPGIPSRFSGSGSGRDYTFTISSLQPEDIATYYCLQYDYFFTFGGGTKVEIK | EC50 (cynomolgus LIV-1 [4]): 0.38 nM; Top (MFI) (cynomolgus LIV-1 [4]): 7470 MFI; EC50 (human LIV-1 [5]): 0.24 nM; Top (MFI) (human LIV-1 [5]): 7660 MFI
0.17 | 3460 | 5.6 | 139000 | 0.15 | 20800 | 0.16 | 19900 | 124H4D11.p2.z4 (antibody, V domains shown) VH: QVQLVQSGAEVVKPGASVKVSCKASGFNIKDYYMHWVRQAPGQGLEWIGWIDPENDDTEYDPKFQGRVTMTADTSTSTVYMELSSLRSEDTAVYYCAARYYAFDYWGQGTMVTVSS VL: DVLMTQSPLSLPVTLGQPASISCRSSQSIVHSNANTYLEWYLQRPGQSPRLLIYKVSNRFSGVPDRFSGSGSGTDFTLKISRVEAEDVGVYYCFQGSQVPPTFGQGTKLEIK | EC50 (rhesus LIV-1): 0.07 nM; Top (MFI) (rhesus LIV-1): 5420 MFI; EC50 (cynomolgus LIV-1 [7]): 0.09 nM; Top (MFI) (cynomolgus LIV-1 [7]): 1420 MFI; Top (MFI) (mouse LIV-1): 107 MFI; binding result (mouse LIV-1): no binding (tested: 100 nM); Top (MFI) (rat LIV-1): 106 MFI; binding result (rat LIV-1): no binding (tested: 100 nM); EC50 (cynomolgus LIV-1 [8]): 0.13 nM; Top (MFI) (cynomolgus LIV-1 [8]): 8840 MFI; EC50 (human LIV-1 [9]): 0.13 nM; Top (MFI) (human LIV-1 [9]): 16900 MFI
